Values quoted from earlier work in article PMC7531836.

Target: C5 (Homo sapiens) (UniProt P01031)

Q: With eculizumab as the substance, how does the Kd read?
A: The Kd was 0.12 nM.
